Test results: patent US20220332800A1 (Takeda / Millennium, published 2022)
Where a chain is given by its changes, count along the chain named.

B1: anti-ZIKV antibody 181-4/329-2 (antibody)
heavy: QAQLEESGGDLVKPEGSLTLTCTASGFSFTDRHYMCWVRQAPGKGLEWIACVYPGSSGSTYYASWARGRFTISKTSSTTVTLRMTSLTAADTATYFCARSSYPDSSGYSYGMDLWGPGTLVTVSSGQPKAPSVFPLAPCCGDTPSSTVTLGCLVKGYLPEPVTVTWNSGTLTNGVRTFPSVRQSSGLYSLSSVVSVTSSSQPVTCNVAHPATNTKVDKTVAPSTCSKPTCPPPELLGGPSVFIFPPKPKDTLMISRTPEVTCVVVDVSQDDPEVQFTWYINNEQVRTARPPLREQQFNSTIRVVSTLPIAHQDWLRGKEFKCKVHNKALPAPIEKTISKARGQPLEPKVYTMGPPREELSSRSVSLTCMINGFYPSDISVEWEKNGKAEDNYKTTPAVLDSDGSYFLYSKLSVPTSEWQRGDVFTCSVMHEALHNHYTQKSISRSPGK
light: DIVMTQTPASVEAAVGGTVTIKCQASQNINSNLAWYQQKPGQRPKFLMYLTSKLASGVPSRFRGSGSGTQFTLTISDLECADAATYYCQTYYDISNYGYAFGGGTEVVVKGDPVAPTVLIFPPAADQVATGTVTIVCVANKYFPDVTVTWEVDGTTQTTGIENSKTPQNSADCTYNLSSTLTLTSTQYNSHKEYTCKVTQGTTSVVQSFNRGDC
B2: anti-ZIKV antibody 260-3 (antibody)
heavy: B1 heavy with S124P
light: B1 light
notes: also called clone 260-3

What was measured:
[1] = molecular target: T1, ZIKV-VLP (Native Antigen Inc.) (Zika virus); assay: BLI (Octet), supernatant IgG captured on Protein A biosensor, ZIKV-VLP 3.3 µg/mL in solution, 1:1 model
T1 construct: also called Zika VLP; ZVLP

Zika PRVABC59 live virus = Zika PRVABC59 live virus (Zika virus); assay: cell-based or functional assay
[2] = molecular target: T1, ZIKV-VLP (Native Antigen Inc.); assay: BLI binning on ZIKV-VLP; 1st mAb: 242-3
[3] = molecular target: T1, ZIKV-VLP (Native Antigen Inc.); assay: indirect ELISA, purified antibody serially diluted from 10 µg/ml
[4] = molecular target: T1, ZIKV-VLP (Native Antigen Inc.); assay: BLI binning on ZIKV-VLP; 1st mAb: 4G2
[5] = molecular target: T1, ZIKV-VLP (Native Antigen Inc.); assay: BLI binning on ZIKV-VLP; 1st mAb: 289-3
[6] = molecular target: T1, ZIKV-VLP (Native Antigen Inc.); assay: BLI binning on ZIKV-VLP; 1st mAb: 270-12
[7] = molecular target: T1, ZIKV-VLP (Native Antigen Inc.); assay: BLI binning on ZIKV-VLP; 1st mAb: Ab2
[8] = molecular target: T1, ZIKV-VLP (Native Antigen Inc.); assay: BLI binning on ZIKV-VLP; 1st mAb: 306-2
[9] = molecular target: T1, ZIKV-VLP (Native Antigen Inc.); assay: BLI binning on ZIKV-VLP; 1st mAb: 329-2
[10] = molecular target: T1, ZIKV-VLP (Native Antigen Inc.); assay: BLI binning on ZIKV-VLP; 1st mAb: 181-4
[11] = molecular target: T1, ZIKV-VLP (Native Antigen Inc.); assay: BLI binning on ZIKV-VLP; 1st mAb: Ab1
[12] = molecular target: T1, ZIKV-VLP (Native Antigen Inc.); assay: BLI binning on ZIKV-VLP; 1st mAb: 11-3
[13] = molecular target: T1, ZIKV-VLP (Native Antigen Inc.); assay: BLI binning on ZIKV-VLP; 1st mAb: 260-2
[14] = molecular target: T1, ZIKV-VLP (Native Antigen Inc.); assay: BLI binning on ZIKV-VLP; 1st mAb: 102-1
[15] = molecular target: T1, ZIKV-VLP (Native Antigen Inc.); assay: BLI binning on ZIKV-VLP; 1st mAb: 78-2
[16] = molecular target: T1, ZIKV-VLP (Native Antigen Inc.); assay: BLI binning on ZIKV-VLP; 1st mAb: C10

Binder	koff [1] [s⁻¹]	MNT IC50 (ng/mL) of Purified antibody (Zika PRVABC59 live virus) [ng/mL]	response of 2nd mAb [2]	EC50 [3] [mg/L]	response of 2nd mAb [4]	response of 2nd mAb [5]	response of 2nd mAb [6]	response of 2nd mAb [7]	response of 2nd mAb [8]	response of 2nd mAb [9]	response of 2nd mAb [10]	response of 2nd mAb [11]	response of 2nd mAb [12]	response of 2nd mAb [13]	response of 2nd mAb [14]	response of 2nd mAb [15]	response of 2nd mAb [16]
B1	< 1e-07	26.7	0.01	0.0114													
B2	< 1e-07	19.9	0.01	0.00793	0.67	-0.03	0.01	4.96	0.32	0.01	0	0.32	0.36	0	0.03	0.33	4.06
